Patent publication US8138307

Legend:
[1] = molecular target: GAL4 activation domain-hsyt11AB fusion encoded by pGAD10-hsyt11AB (human synaptotagmin 11, domains C2A and C2B) (human) (UniProt Q9BT88); assay: yeast two-hybrid liquid assay (β-galactosidase, n=3)
[2] = molecular target: GFP-syt11 (GFP fusion of full-length human synaptotagmin XI) (human) [GFP: P42212]; assay: co-immunoprecipitation with anti-HA agarose, anti-GFP blot

GAL4 activation domain-hsyt11AB fusion encoded by pGAD10-hsyt11AB (human synaptotagmin 11, domains C2A and C2B) (human), sequence (Q9BT88 157-431 G231V): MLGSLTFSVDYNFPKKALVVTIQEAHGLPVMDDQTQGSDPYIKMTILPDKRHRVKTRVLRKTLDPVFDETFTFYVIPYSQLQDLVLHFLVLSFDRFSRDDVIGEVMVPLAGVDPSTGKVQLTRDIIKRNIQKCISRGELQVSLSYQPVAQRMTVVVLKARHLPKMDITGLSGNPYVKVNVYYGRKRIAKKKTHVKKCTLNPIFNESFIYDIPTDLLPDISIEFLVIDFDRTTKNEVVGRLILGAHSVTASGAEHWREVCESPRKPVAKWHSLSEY

GAL4 binding domain-parkin(1-465) fusion encoded by pGBT9-parkin(1-465) (from UniProt P04386 1-147; O60260 1-465)
fold β-galactosidase activity over pGBT9 vector control [1]: 20 fold

HA-tagged missense mutated parkin C289G (from UniProt O60260 1-465) (enzyme)
fold less interaction compared with parkinC418R [2]: 2.5 fold less
